Tests used:
[1] = molecular target: purified cynomolgus CD45 ectodomain (cynomolgus monkey); test: BLI (Octet Red96), IgG on anti-human Fc sensor, 50 nM CD45 ectodomain, 1:1 fit
[2] = molecular target: purified rhesus CD45 ectodomain (rhesus macaque); test: as above
[3] = molecular target: purified cynomolgus CD45 ectodomain (cynomolgus monkey); test: BLI (Octet Red96), antibody on anti-human Fc sensor, 300 nM cynomolgus CD45 ectodomain, 1:1 fit
[4] = molecular target: purified cynomolgus CD45 ectodomain (cynomolgus monkey); test: BLI (Octet Red96), Table 11; the sentence does not name the species of CD45

Sequence of purified rhesus CD45 ectodomain (rhesus macaque) (chain, as listed by the source limits assumed, form in doubt): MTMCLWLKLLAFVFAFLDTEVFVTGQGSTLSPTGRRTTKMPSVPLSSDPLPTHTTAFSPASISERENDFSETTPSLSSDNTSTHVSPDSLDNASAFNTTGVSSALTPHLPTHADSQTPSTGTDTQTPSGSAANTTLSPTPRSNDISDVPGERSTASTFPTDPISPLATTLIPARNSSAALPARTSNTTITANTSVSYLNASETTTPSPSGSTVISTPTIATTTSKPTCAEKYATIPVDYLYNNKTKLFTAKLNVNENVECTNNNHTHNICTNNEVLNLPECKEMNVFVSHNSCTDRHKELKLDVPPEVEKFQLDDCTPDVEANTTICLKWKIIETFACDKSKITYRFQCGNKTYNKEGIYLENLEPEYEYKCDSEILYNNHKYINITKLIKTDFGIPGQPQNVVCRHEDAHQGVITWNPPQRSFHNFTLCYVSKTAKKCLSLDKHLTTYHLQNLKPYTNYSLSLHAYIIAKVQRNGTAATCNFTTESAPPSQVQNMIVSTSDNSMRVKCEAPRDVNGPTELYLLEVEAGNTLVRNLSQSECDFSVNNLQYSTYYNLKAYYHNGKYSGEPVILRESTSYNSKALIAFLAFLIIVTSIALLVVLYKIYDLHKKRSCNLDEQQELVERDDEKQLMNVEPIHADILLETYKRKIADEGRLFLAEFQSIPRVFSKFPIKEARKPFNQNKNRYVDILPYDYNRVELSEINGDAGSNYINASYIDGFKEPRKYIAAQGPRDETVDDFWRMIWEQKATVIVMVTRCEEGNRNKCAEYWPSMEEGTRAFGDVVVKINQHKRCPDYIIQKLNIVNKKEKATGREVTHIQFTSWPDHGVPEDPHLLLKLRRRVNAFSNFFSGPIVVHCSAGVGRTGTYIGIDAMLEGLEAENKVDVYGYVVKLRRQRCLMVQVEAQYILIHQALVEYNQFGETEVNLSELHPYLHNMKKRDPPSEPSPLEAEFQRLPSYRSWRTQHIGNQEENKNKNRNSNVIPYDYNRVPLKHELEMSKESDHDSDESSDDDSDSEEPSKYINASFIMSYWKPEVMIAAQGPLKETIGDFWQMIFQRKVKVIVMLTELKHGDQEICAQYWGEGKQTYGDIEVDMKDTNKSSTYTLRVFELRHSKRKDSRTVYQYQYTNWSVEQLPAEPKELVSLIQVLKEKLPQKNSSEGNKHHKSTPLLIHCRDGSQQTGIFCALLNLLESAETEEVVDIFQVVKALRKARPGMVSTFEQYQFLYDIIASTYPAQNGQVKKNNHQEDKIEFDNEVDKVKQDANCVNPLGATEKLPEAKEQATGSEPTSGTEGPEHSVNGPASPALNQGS
Sequence of purified cynomolgus CD45 ectodomain (cynomolgus monkey) (chain, as listed by the source limits assumed, form in doubt): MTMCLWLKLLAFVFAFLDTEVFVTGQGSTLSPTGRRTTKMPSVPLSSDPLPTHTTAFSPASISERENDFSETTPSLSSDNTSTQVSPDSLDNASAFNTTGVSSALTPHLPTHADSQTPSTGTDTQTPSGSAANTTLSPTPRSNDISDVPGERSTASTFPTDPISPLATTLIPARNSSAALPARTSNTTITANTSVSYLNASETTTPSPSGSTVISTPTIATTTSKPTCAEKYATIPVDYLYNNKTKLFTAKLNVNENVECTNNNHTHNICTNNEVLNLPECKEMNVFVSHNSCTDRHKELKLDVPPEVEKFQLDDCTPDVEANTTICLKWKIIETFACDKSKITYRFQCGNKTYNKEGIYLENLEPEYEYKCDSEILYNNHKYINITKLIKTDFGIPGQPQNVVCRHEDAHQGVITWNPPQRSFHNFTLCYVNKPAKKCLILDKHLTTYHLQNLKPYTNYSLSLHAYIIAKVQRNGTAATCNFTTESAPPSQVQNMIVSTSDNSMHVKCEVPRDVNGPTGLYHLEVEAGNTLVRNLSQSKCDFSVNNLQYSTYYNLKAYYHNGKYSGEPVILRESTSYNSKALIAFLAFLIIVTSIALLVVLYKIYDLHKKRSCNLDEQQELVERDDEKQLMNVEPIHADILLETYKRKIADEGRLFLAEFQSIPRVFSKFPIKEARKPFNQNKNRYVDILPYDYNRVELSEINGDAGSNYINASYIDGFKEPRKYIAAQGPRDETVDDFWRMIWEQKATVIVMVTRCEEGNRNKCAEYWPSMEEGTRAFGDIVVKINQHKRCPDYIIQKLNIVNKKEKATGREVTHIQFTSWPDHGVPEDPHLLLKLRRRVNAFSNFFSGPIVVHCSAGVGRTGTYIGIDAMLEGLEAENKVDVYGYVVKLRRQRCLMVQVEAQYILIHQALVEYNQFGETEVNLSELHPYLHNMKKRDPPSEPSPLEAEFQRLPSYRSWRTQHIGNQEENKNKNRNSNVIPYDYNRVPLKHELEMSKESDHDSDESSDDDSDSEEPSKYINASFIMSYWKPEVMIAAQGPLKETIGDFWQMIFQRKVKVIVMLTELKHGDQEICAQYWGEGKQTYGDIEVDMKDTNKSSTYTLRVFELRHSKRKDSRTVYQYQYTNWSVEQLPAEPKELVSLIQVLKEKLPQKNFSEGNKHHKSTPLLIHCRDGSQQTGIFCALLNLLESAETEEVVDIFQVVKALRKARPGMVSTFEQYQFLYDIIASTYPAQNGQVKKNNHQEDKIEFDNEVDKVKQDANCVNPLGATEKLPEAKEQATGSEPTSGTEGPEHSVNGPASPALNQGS

Row | Binder | Kd [1] [nM] | koff [1] [s⁻¹] | kon [1] [M⁻¹ s⁻¹] | Kd [2] [nM] | koff [2] [s⁻¹] | kon [2] [M⁻¹ s⁻¹] | Kd [3] [nM] | koff [3] [s⁻¹] | kon [3] [M⁻¹ s⁻¹] | fold improved affinity over the parent clone C [4] [fold]
1 | Antibody 2 (Ab2) (antibody, V domains shown) VH: EVQLVESGGGLVQPGGSLRLSCAASGFTFEAYSMNWVRQAPGKGLEWVSYISLSGATIHYADSVKGRFTISRDNAKNSLYLQMNSLRAEDTAVYYCARGGQYYYDSSDYGEVAFDIWGQGTMVTVSS VL: DIVMTQSPLSLPVTPGEPASISCRSSQSLVSNGYNYLDWYLQKPGQSPQLLIYFGSSRASGVPDRFSGSGSGTDFTLKISRVEAEDVGVYYCMQRRRTPWSFGGGTKVEIK | 1.08 | 0.000129 | 119000 | 1.42 | 0.000192 | 135000 | – | – | – | –
2 | Antibody C (AbC) (antibody, IgG1, V domains shown) VH: EVQLVESGGGLVQPGGSLRLSCAASGFTFNNYWMTWVRQAPGKGLEWVSSISSSGGSIYYPDSVKDRFTISRDNAKNSLYLQMNSLRAEDMAVYYCARLYYYDGGGDAWGQGTLVTVSS VL: GIQMTQSPSSLSASVGDRVTITCKASQDINKYLDWYQQKPGKAPKLLIYNTNNLHTGIPSRFSGSGSGTDYTLTISSLQPEDFATYYCLQHISRWTFGGGTKVEIK | – | – | – | – | – | – | 25.3 | 0.000282 | 11100 | > 4
3 | Antibody 4 (Ab4) (antibody, V domains shown) VH: EVQLVESGGGLVQPGGSLRLSCAASGFTFEAYSMNWVRQAPGKGLEWVSYISLSGATIHYADSVKGRFTISRDNAKNSLYLQMNSLRAEDTAVYYCARGGQYYYTSSDYGEVAFDIWGQGTMVTVSS VL: DIVMTQSPLSLPVTPGEPASISCRSSQSLVSNGYNYLDWYLQKPGQSPQLLIYFGSSRASGVPDRFSGSGSGTDFTLKISRVEAEDVGVYYCMQRRRTPWSFGGGTKVEIK | 0.721 | 7.89e-05 | 110000 | 0.867 | 0.000102 | 118000 | – | – | – | –
4 | Antibody 5 (Ab5) (antibody, V domains shown) VH: EVQLVESGGGLVQPGGSLRLSCAASGFTFEAYSMNWVRQAPGKGLEWVSYISLSGATIHYADSVKGRFTISRDNAKNSLYLQMNSLRAEDTAVYYCARGGQYYYTSSDYGEVAFDIWGQGTMVTVSS VL: DIVMTQSPLSLPVTPGEPASISCRSSQSLVSSGYNYLDWYLQKPGQSPQLLIYFGSSRASGVPDRFSGSGSGTDFTLKISRVEAEDVGVYYCMQRRRTPWSFGGGTKVEIK | 1.4 | 0.000164 | 117000 | 1.71 | 0.000193 | 113000 | – | – | – | –
5 | Antibody 6 (Ab6) (antibody, V domains shown) VH: EVQLVESGGGLVQPGGSLRLSCAASGFTFEAYSMNWVRQAPGKGLEWVSYISLSGATIHYADSVKGRFTISRDNAKNSLYLQMNSLRAEDTAVYYCARGGQYYYTSSDYGEVAFDIWGQGTLVTVSS VL: DIVLTQSPLSLPVTPGEPASISCRSSQSLVSSGYNYLDWYLQKPGQSPQLLIYFGSSRASGVPDRFSGSGSGTDFTLKISRVEAEDVGVYYCMQRRRTPWSFGGGTKVEIK | 1.3 | 0.000154 | 118000 | 1.44 | 0.000175 | 122000 | – | – | – | –
6 | Antibody 3 (Ab3) (antibody, V domains shown) VH: QVQLVESGGGLVKPGGSLRLSCAASGFTFGGYSMNWVRQAPGKGLEWVSYISISGATITYADSVKGRFTISRDNAKNSLYLQMNSLRAEDTAVYYCARGGQYYYDSSDYGEVAFDIWGQGTMVTVSS VL: DIVMTQSPLSLPVTPGEPASISCRSSQSLVSNGYNYLDWYLQKPGQSPQLLIYFGSSRASGVPDRFSGSGSGTDFTLKISRVEAEDVGVYYCMQRRRTPPFTFGGGTKVEIK | 1.61 | 0.000192 | 120000 | 1.65 | 0.000222 | 135000 | – | – | – | –
7 | Antibody 7 (Ab7) (antibody, V domains shown) VH: QVQLVESGGGLVKPGGSLRLSCAASGFTFGGYSMNWVRQAPGKGLEWVSYISISGATITYADSVKGRFTISRDNAKNSLYLQMNSLRAEDTAVYYCARGGQYYYDSSDYGEVAFDIWGQGTMVTVSS VL: DIVMTQSPLSLPVTPGEPASISCRSSQSLVSSGYNYLDWYLQKPGQSPQLLIYFGSSRASGVPDRFSGSGSGTDFTLKISRVEAEDVGVYYCMQRRRTPPFTFGGGTKVEIK | 4.24 | 0.000537 | 127000 | 4.39 | 0.000544 | 124000 | – | – | – | –
8 | Antibody A (AbA) (antibody, V domains shown) VH: EVQLLESGGGLVQPGGSLRLSCAASGFTFNNYWMTWVRQAPGKGLEWVSSISSSGGSIYYPDRVKGRFTISRDNSKNTLYLQMNSLRAEDTAVYYCARDERWAGAMDAWGQGTTVTVSS VL: DIQMTQSPSSLSASVGDRVTITCKASQNINKNLDWYQQKPGKAPKLLIYETNNLQTGVPSRFSGSGSGTDFTLTISSLQPEDFATYYCYQHNSRFTFGQGTKLEIK | – | – | – | – | – | – | 34.1 | 0.000322 | 9440 | –
9 | Antibody B (AbB) (antibody, IgG1, V domains shown) VH: EVQLVESGGGLVQPGGSLRLSCAASGFTFTNFWMAWIRQAPGKGLEWVASISSSGGSIYYPDSVKDRFTISRDNSKNTLYLQMNSLRAEDTAVYYCVKFHHYSGGGDAWGQGTLVTVSS VL: DIQMTQSPSSLSASVGDRVTITCKASQNINKYLDWYQQKPGKAPKLLIHYTNNLHTGIPSRFSGSGSGTDYTLTISSLQPEDFATYYCLQHSSRWTFGGGTKVEIK | – | – | – | – | – | – | 51.5 | 0.00042 | 8160 | –
